These results are taken from patent US20210107983A1 (Boehringer Ingelheim, published 2021).

Where a chain is given by its changes, count along the chain named.

T1: Cyno B7H6-His (cynomolgus monkey)
T1 construct: also called CyB7H6; cyB7-H6
T1 chain: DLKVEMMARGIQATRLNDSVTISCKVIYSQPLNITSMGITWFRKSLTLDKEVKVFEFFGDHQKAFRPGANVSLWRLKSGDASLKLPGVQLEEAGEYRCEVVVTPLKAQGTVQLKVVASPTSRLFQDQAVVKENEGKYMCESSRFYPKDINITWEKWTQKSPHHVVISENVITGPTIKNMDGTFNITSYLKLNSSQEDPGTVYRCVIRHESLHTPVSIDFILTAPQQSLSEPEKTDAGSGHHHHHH

B1: B7H6#13/CD3#1 (bispecific antibody, human IgG1, kappa, lambda, L234A L235A)
chain 1: DIQMTQSPSSLSASVGDRVTITCKASQNVGKYVAWYQQKPGKAPKSLIYSASNRYDGVPSRFSGSGSGTDFTLTISSLQPEDFTTYYCQQYISYPLTFGAGTKLEIKRTVAAPSVFIFPPSDEQLKSGTASVVCLLNNFYPREAKVQWKVDNALQSGNSQESVTEQDSKDSTYSLSSTLTLSKADYEKHKVYACEVTHQGLSSPVTKSFNRGECGGGGSEGKSSGSGSESKSTEGKSSGSGSESKSTGGGGSQVQLVQSGAEVKKPGASVKVSCKASGYTFTSYWMNWMKQAPGQGLEWMGGIYLNGDSTDYNEKFKGRVTMTVDTSTSTVYMELSSLRSEDTAVYYCTRRGDYFGDFWGQGTLVTVSSASTKGPSVFPLAPSSKSTSGGTAALGCLVKDYFPEPVTVSWNSGALTSGVHTFPAVLQSSGLYSLSSVVTVPSSSLGTQTYICNVNHKPSNTKVDKRVEPKSCDKTHTCPPCPAPEAAGGPSVFLFPPKPKDTLMISRTPEVTCVVVDVSHEDPEVKFNWYVDGVEVHNAKTKPREEQYNSTYRVVSVLTVLHQDWLNGKEYKCKVSNKALPAPIEKTISKAKGQPREPQVYTLPPSREEMTKNQVSLWCLVKGFYPSDIAVEWESNGQPENNYKTTPPVLDSDGSFFLYSKLTVDKSRWQQGNVFSCSVMHEALHNHYTQKSLSLSPG
chain 2: EAVVTQEPSLTVSPGGTVTLTCRSSTGAVTTSNYANWVQEKPGQLPRGLIGGTNKRAPWVPARFSGSLLGGKAALTLSGAQPEDEAEYFCALWYSNLWVFGGGTKLTVLGQPKAAPSVTLFPPSSEELQANKATLVCLISDFYPGAVKVAWKADGSPVNTGVETTTPSKQSNNKYAASSYLSLTPEQWKSHRSYSCQVTHEGSTVEKTVAPAECSGGGGSEGKSSGSGSESKSTEGKSSGSGSESKSTGGGGSEVQLVESGGGLVQPGGSLKLSCAASGFTFNTYAMNWVRQAPGKGLEWVARIRSKYNNYATYYADSVKDRFTISRDDSKNTAYLQMNNLKTEDTAVYYCVRHGNFGNSYVSWFAYWGQGTLVTVSAASTKGPSVFPLAPSSKSTSGGTAALGCLVKDYFPEPVTVSWNSGALTSGVHTFPAVLQSSGLYSLSSVVTVPSSSLGTQTYICNVNHKPSNTKVDKRVEPKSCDKTHTCPPCPAPEAAGGPSVFLFPPKPKDTLMISRTPEVTCVVVDVSHEDPEVKFNWYVDGVEVHNAKTKPREEQYNSTYRVVSVLTVLHQDWLNGKEYKCKVSNKALPAPIEKTISKAKGQPREPQVYTLPPSREEMTKNQVSLSCAVKGFYPSDIAVEWESNGQPENNYKTTPPVLDSDGSFFLVSKLTVDKSRWQQGNVFSCSVMHEALHNRFTQKSLSLSPG
notes: scFab-Fc heterodimer, one B7H6 chain and one CD3 chain
B2: B7H6#16/CD3#1 (bispecific antibody, human IgG1, kappa, lambda, L234A L235A)
chain 1: B1 chain 1 with K290R, N306S, D308E
chain 2: B1 chain 2
notes: as for B1
B3: B7H6#14/CD3#1 (bispecific antibody, human IgG1, kappa, lambda, L234A L235A)
chain 1: B1 chain 1 with T84A, Y87F, S283N, M300I, R319K
chain 2: B1 chain 2
notes: as for B1
B4: B7H6#15/CD3#1 (bispecific antibody, human IgG1, kappa, lambda, L234A L235A)
chain 1: B1 chain 1 with S283N, K290R, N306S
chain 2: B1 chain 2
notes: as for B1
B5: B7H6#21/CD3#1 (bispecific antibody, human IgG1, kappa, lambda, L234A L235A)
chain 1: B1 chain 1 with T84A, Y87F, M300I, N306S, D308E, R319K
chain 2: B1 chain 2
notes: as for B1
B6: B7H6#18/CD3#1 (bispecific antibody, human IgG1, kappa, lambda, L234A L235A)
chain 1: B1 chain 1 with G57A, K290R, N306S
chain 2: B1 chain 2
notes: as for B1
B7: B7H6#19/CD3#1 (bispecific antibody, human IgG1, kappa, lambda, L234A L235A)
chain 1: B1 chain 1 with M289V, N306S, D308E, R319K, V320A
chain 2: B1 chain 2
notes: as for B1
B8: B7H6#20/CD3#1 (bispecific antibody, human IgG1, kappa, lambda, L234A L235A)
chain 1: B1 chain 1 with G57A, M289V, N306S, R319K, V320A
chain 2: B1 chain 2
notes: as for B1

T5 sequence (P01070 25-205): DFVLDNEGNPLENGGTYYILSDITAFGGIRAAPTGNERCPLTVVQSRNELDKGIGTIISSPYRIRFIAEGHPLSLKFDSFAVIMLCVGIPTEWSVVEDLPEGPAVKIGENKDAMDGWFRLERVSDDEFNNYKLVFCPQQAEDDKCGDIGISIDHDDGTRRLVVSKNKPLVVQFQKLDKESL

The target of the first experiment is T1, Cyno B7H6-His. Briefly: ratio of SPR KDs cyno/human. How it is done: (§1) About 700 RU of the B7H6/CD3 binding protein was captured on flow cell 2 of the Protein A/G surface for 60 s at a flow rate of 10 μL/min. The analytes HuB7H6, CyB7H6 and HuB7H1 were injected across both flow cells over captured B7H6/CD3 binding protein for 300 s at a flow rate of 30 μL/min with a dissociation of 1200 s. The concentrations of HuB7H6 and CyB7H6 were 0 nM, 6.25 nM, 12.5 nM, 25 nM, 50 nM and 100 nM. The concentrations of HuB7H1 were 0 nM and 1 μM. The surface was regenerated by injecting 10 mM glycine-HCl, pH 1.5 for 20 s at a flow rate of 30 μL/min across both flow cells.
(§2) The reference flow cell 1 (interactions with sensor surface) and blank (HBS-EP+ or 0 nM analyte) were subtracted from the raw data.
(§3) The B7H6/CD3 binding protein analyte was injected horizontally over the immobilized surface for 300 s at a flow rate of 30 μL/min with a dissociation of 600 s. The concentrations of the B7H6/CD3 binding protein used were 0 nM, 1.2 nM, 3.7 nM, 11.1 nM, 33.3 nM and 100 nM.
Take B1: the “cy/hu B7-H6” value came to 1.5.
On the same count and under the same terms, the figure for B2 is 2.3; for B3 it is 5.9.
Still for that read-out and setting: to B4 belongs 2.8; to B5, 0.4.
Still for that read-out and setting: the figure for B6 is 2.3; for B7 it is 3.1; for B8 it is 4.6.

The next experiment deals with T2, chicken egg white lysozyme (chicken, UniProt P00698 19-147).
T2 construct: unrelated positively charged protein, amine-coupled to the chip; also called Lysozyme (positive)
T2 sequence (P00698 19-147): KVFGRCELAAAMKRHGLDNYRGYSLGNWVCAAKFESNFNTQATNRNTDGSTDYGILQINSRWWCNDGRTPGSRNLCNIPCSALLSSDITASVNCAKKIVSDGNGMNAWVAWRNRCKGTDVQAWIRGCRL
The experiment is described as follows: SPR, 1 µM binder over immobilized lysozyme. As to the method: (§4) The experiment was performed on a Biacore® T200 SPR system (GE Healthcare Life Sciences). The dilution, surface preparation, and binding experiments were performed at 25° C. in 1×HBS-EP buffer prepared from 10×HBS-EP. The flow rate for both the immobilization protocol and binding experiment was at 5 μL/min.
(§5) To prepare the surface for the non-specific binding experiment, chicken egg white lysozyme and trypsin inhibitor from Glycine max soybean were coupled manually to a Biacore® series S CM5 sensor chip (GE Healthcare sciences) with the surface density of 3000-5000 RU using the amine coupling kit according to the manufacture instructions. Samples were prepared at 1 μM in 1×HBS-EP buffer. The samples were injected over activated surfaces with a 10 min association and 15 min dissociation. The data was collected using Biacore® T200 Control Software version 2.0.1 and analyzed using Biacore® T200 Evaluation Software version 3.0 (GE Healthcare Life Sciences).
In general terms: SPR reads the build-up and loss of mass on a sensor chip optically.
For the molecule B1, the “Non-specific binding (RU)” value came out at 7.2 RU.
Still for that read-out and setting: to B2 belongs 8.2 RU; to B3, 8.1 RU; to B4, 7.2 RU.
For the molecule B5, the “Non-specific binding (RU)” value came out at 8.1 RU.
The same measure, in the same setting: the figure for B6 is 6.6 RU; for B7 it is 8.2 RU.
Regarding B8, the “Non-specific binding (RU)” value worked out at 9.8 RU.

For a further experiment, the target named is T3, Human CD3 E+G HuFc-6xHis (human).
T3 construct: also called HuCD3E+G-hFc; huCD3
T3 sequence (chain, as listed by the source limits assumed): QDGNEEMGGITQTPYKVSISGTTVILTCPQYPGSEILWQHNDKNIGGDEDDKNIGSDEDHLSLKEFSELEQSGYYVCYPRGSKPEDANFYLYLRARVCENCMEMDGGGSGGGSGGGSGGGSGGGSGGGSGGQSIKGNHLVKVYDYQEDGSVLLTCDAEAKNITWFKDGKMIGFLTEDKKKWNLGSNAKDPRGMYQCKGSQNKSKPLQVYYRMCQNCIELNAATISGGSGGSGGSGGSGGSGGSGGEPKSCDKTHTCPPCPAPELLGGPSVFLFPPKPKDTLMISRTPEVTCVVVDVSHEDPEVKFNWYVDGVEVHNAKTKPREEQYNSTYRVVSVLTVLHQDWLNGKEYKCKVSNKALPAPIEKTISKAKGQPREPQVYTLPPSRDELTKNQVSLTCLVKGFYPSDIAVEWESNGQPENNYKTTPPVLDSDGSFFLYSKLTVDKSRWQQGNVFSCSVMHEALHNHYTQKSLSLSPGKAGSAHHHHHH
Briefly: SPR, CD3E+G-hFc immobilized, binder analyte. How it is done: To determine the affinity of the B7H6/CD3 binding protein to human and cyno CD3E+G-hFc, the experiment was performed on a Bio-Rad ProteOn™ XPR36 instrument. Briefly, HuCD3E+G-hFc and CyCD3E+G were amine-coupled on a ProteOn™ GLM sensor chip (Bio-Rad) and the B7H6/CD3 binding protein was flowed over the immobilized surface. The running buffer for this experiment and all serial dilutions were prepared in HBS-EP+. The GLM sensor chip was normalized according to Bio-Rad's recommendations. The sensor chip was activated with an equal mixture of EDC/s-NHS in the horizontal direction for 300 s at a flow rate of 30 μL/min HuCD3E+G-hFc was immobilized in the vertical direction at 0.4 μg/mL, 0.2 μg/mL and 0.1 μg/mL in 10 mM acetate pH 4.5 to L1, L2 and L3, respectively, for 300 s at a flow rate of 30 μL/min resulting in about 100 RU of HuCD3E+G-hFc on L1, 40 RU of HuCD3E+G-hFc on L2 and 0 RU of HuCD3E+G-hFc on L3. CyCD3E+G-hFc was immobilized in the vertical direction at 0.4 μg/mL, 0.2 μg/mL and 0.1 μg/mL in 10 mM acetate pH 4.5 to L4, L5 and L6, respectively, for 300 s at a flow rate of 30 μL/min resulting in about 385 RU of […], 170 RU of CyCD3E+G-hFc on L5 and 50 RU of CyCD3E+G-hFc on L6. The sensor chip was deactivated with 1M ethanolamine-HCl in the horizontal direction for 300 s at a flow rate of 30 μL/min.
as §3
The interspot (interactions with sensor surface) and blank (HBS-EP+ or 0 nM analyte) were subtracted from the raw data.
The Kd is the equilibrium constant for the complex coming apart. The low end stands for tighter binding, the high end for weaker binding. B1 showed a Kd of 4.1 nM.
Same read-out and setting: the figure for B2 is 3.7 nM.
Still for that read-out and setting: to B3 belongs 4.2 nM; to B4, 3.8 nM.
For the molecule B5, the Kd is 4.4 nM.
Same read-out and setting: the figure for B6 is 3.9 nM; for B7 it is 4 nM; for B8 it is 4 nM.

The target of the next experiment is T1, Cyno B7H6-His. The experiment is described as follows: SPR, binder captured on Protein A/G, B7H6 analyte. As to the method:
(§6) To determine the affinity of human and cyno B7H6 and human B7H1 to B7H6/CD3 binding proteins, the experiment was performed on a Biacore™ 8K instrument (GE Healthcare Life Sciences). Briefly, the B7H6/CD3 binding protein was captured via Protein A/G. The running buffer for this experiment and all serial dilutions were prepared in HBS-EP+. The CM5 sensor chip was activated with an equal mixture of EDC/NHS across both flow cells for 420 s at a flow rate of 10 μL/min and immobilized with recombinant Protein A/G (50 μg/ml in 10 mM NaOAc, pH 4.5) across all flow cells for 420 s at a flow rate of 10 μL/min resulting in about 2500 RU of Protein A/G on the surface. The sensor chip was deactivated with 1M ethanolamine-HCl across all flow cells for 420 s at a flow rate of 10 μL/min.
as §1, §2
In turn, B1 yielded a dissociation constant (Kd) of 4.6 nM.
On the same count and under the same terms, the figure for B2 is 7.2 nM; for B3 it is 0.6 nM.
The same measure, in the same setting: to B4 belongs 2.2 nM; to B5, 1.4 nM; to B6, 3.3 nM.
Same read-out and setting: to B7 belongs 5.1 nM; to B8, 4.9 nM.

The target of another experiment is T4, Human B7H1 (human, UniProt Q9NZQ7 20-239).
T4 construct: also called HuB7H1; huB7-H1
T4 sequence (Q9NZQ7 other isoform, or with tags, fused parts or gaps limits assumed): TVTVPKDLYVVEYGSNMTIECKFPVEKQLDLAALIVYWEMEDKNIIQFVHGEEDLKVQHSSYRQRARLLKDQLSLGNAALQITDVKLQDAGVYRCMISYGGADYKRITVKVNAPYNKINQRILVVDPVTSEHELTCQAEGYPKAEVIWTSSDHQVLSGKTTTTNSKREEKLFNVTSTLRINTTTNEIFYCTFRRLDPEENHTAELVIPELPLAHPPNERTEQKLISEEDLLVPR
Briefly: SPR, binder captured on Protein A/G, HuB7H1 analyte. How it is done:
as §6, §1, §2
Regarding B1, the binding result is recorded as “no binding (tested: 1 µM)”.
In the case of B2, the binding result is listed as “no binding (tested: 1 µM)”.
Consider B3, for which the binding result is “no binding (tested: 1 µM)”.
On to B4, for which the binding result is “no binding (tested: 1 µM)”.
Still for that read-out and setting: to B5 belongs “no binding (tested: 1 µM)”; to B6, “no binding (tested: 1 µM)”; to B7, “no binding (tested: 1 µM)”.
Still for that read-out and setting: to B8 belongs “no binding (tested: 1 µM)”.

The next experiment concerns the target T5, trypsin inhibitor from Glycine max soybean (Glycine max (soybean)).
T5 construct: unrelated negatively charged protein, amine-coupled to the chip
The experiment is described as follows: SPR, 1 µM binder over immobilized trypsin inhibitor. As to the method:
as §4, §5
Consider B1, for which the “Non-specific binding (RU)” value is 30.6 RU.
Same read-out and setting: the figure for B2 is 42.6 RU.
Turning to B3, the “Non-specific binding (RU)” value was 32.7 RU.
Regarding B4, the “Non-specific binding (RU)” value was found to be 32.8 RU.
Same read-out and setting: to B5 belongs 42 RU.
In the case of B6, the “Non-specific binding (RU)” value was determined as 32.8 RU.
For the molecule B7, the “Non-specific binding (RU)” value came out at 40.3 RU.
Same read-out and setting: to B8 belongs 48.4 RU.
